Results on six molecules are retold here after patent US20260209293A1 (Novo Nordisk, published 2026).

*1 amine or outer side, *2 acyl side, *3 side chain or, on linkers, in order; H or OH if unused. The star is where a group is joined. C18 diacid = O=C(O)CCCCCCCCCCCCCCCCC(=O)*; γGlu = O=C(O)[C@H](CCC(=O)[*:2])N[*:1]

To fix the notation:
T1: human amylin-3(a) receptor (human, UniProt P30988 25-474; O60896 24-148)
T1 sequence (looked up) 1: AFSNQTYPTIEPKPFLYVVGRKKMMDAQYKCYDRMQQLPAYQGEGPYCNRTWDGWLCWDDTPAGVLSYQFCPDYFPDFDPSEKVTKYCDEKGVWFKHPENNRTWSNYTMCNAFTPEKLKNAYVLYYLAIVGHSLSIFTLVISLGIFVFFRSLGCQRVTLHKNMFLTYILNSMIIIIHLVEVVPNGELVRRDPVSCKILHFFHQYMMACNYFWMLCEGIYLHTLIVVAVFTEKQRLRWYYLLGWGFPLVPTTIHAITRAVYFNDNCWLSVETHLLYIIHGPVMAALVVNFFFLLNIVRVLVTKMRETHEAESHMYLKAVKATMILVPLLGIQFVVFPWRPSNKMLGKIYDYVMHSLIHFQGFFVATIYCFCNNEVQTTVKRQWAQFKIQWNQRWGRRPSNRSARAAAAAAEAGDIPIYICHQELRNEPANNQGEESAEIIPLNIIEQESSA
T1 sequence (looked up) 2: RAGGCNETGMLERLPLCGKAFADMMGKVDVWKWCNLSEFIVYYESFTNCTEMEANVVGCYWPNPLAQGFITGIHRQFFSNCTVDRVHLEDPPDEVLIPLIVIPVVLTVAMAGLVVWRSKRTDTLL

T2: human calcitonin receptor (a) (human, UniProt P30988 25-474)
T2 sequence (looked up): T1 sequence (looked up) 1

B1: N^1-[(4S)-4-carboxy-4-(17-carboxyheptadecanoylamino)butanoyl]-[Ala1,Ser2,His3,Leu4,Ser5,Ala7,Gln8,Glu14,His17,Asp21, Pro22,Pro27,Asp31, Pro34,Pro37]-human … (peptide)
peptide: {C18 diacid-γGlu}-ASHLSTAQTQRLAEFLHHSSDPFGAIPSSTDVGPNTP-NH2
SMILES: CC[C@H](C)[C@H](NC(=O)[C@H](C)NC(=O)CNC(=O)[C@H](Cc1ccccc1)NC(=O)[C@@H]1CCCN1C(=O)[C@H](CC(=O)O)NC(=O)[C@H](CO)NC(=O)[C@H](CO)NC(=O)[C@H](Cc1c[nH]cn1)NC(=O)[C@H](Cc1c[nH]cn1)NC(=O)[C@H](CC(C)C)NC(=O)[C@H](Cc1ccccc1)NC(=O)[C@H](CCC(=O)O)NC(=O)[C@H](C)NC(=O)[C@H](CC(C)C)NC(=O)[C@H](CCCNC(=N)N)NC(=O)[C@H](CCC(N)=O)NC(=O)[C@@H](NC(=O)[C@H](CCC(N)=O)NC(=O)[C@H](C)NC(=O)[C@@H](NC(=O)[C@H](CO)NC(=O)[C@H](CC(C)C)NC(=O)[C@H](Cc1c[nH]cn1)NC(=O)[C@H](CO)NC(=O)[C@H](C)NC(=O)CC[C@H](NC(=O)CCCCCCCCCCCCCCCCC(=O)O)C(=O)O)[C@@H](C)O)[C@@H](C)O)C(=O)N1CCC[C@H]1C(=O)N[C@@H](CO)C(=O)N[C@@H](CO)C(=O)N[C@H](C(=O)N[C@@H](CC(=O)O)C(=O)N[C@H](C(=O)NCC(=O)N1CCC[C@H]1C(=O)N[C@@H](CC(N)=O)C(=O)N[C@H](C(=O)N1CCC[C@H]1C(N)=O)[C@@H](C)O)C(C)C)[C@@H](C)O
B2: N^1-[(4S)-4-carboxy-4-(17-carboxyheptadecanoylamino)butanoyl]-[Ala1,Ser2,Gln3,Leu4,Ser5,Ala7,Gln8,Glu14, His17,Asp21, Pro22, Pro27,Asp31,Pro34,Asp35, … (peptide)
peptide: {C18 diacid-γGlu}-ASQLSTAQTQRLAEFLHHSSDPFGAIPSSTDVGPDTP-NH2
SMILES: CC[C@H](C)[C@H](NC(=O)[C@H](C)NC(=O)CNC(=O)[C@H](Cc1ccccc1)NC(=O)[C@@H]1CCCN1C(=O)[C@H](CC(=O)O)NC(=O)[C@H](CO)NC(=O)[C@H](CO)NC(=O)[C@H](Cc1c[nH]cn1)NC(=O)[C@H](Cc1c[nH]cn1)NC(=O)[C@H](CC(C)C)NC(=O)[C@H](Cc1ccccc1)NC(=O)[C@H](CCC(=O)O)NC(=O)[C@H](C)NC(=O)[C@H](CC(C)C)NC(=O)[C@H](CCCNC(=N)N)NC(=O)[C@H](CCC(N)=O)NC(=O)[C@@H](NC(=O)[C@H](CCC(N)=O)NC(=O)[C@H](C)NC(=O)[C@@H](NC(=O)[C@H](CO)NC(=O)[C@H](CC(C)C)NC(=O)[C@H](CCC(N)=O)NC(=O)[C@H](CO)NC(=O)[C@H](C)NC(=O)CC[C@H](NC(=O)CCCCCCCCCCCCCCCCC(=O)O)C(=O)O)[C@@H](C)O)[C@@H](C)O)C(=O)N1CCC[C@H]1C(=O)N[C@@H](CO)C(=O)N[C@@H](CO)C(=O)N[C@H](C(=O)N[C@@H](CC(=O)O)C(=O)N[C@H](C(=O)NCC(=O)N1CCC[C@H]1C(=O)N[C@@H](CC(=O)O)C(=O)N[C@H](C(=O)N1CCC[C@H]1C(N)=O)[C@@H](C)O)C(C)C)[C@@H](C)O
B3: N^1-[(4S)-4-carboxy-4-(17-carboxyheptadecanoylamino)butanoyl]-[Ala1,Ser2,His3,Leu4,Ser5,Ala7,Gln8,Ala10,Glu14,His17,Asp21,Pro22,Pro27,Asp31,Pro34,Asp35,Pro37]-h … (peptide)
peptide: {C18 diacid-γGlu}-ASHLSTAQTARLAEFLHHSSDPFGAIPSSTDVGPDTP-NH2
SMILES: CC[C@H](C)[C@H](NC(=O)[C@H](C)NC(=O)CNC(=O)[C@H](Cc1ccccc1)NC(=O)[C@@H]1CCCN1C(=O)[C@H](CC(=O)O)NC(=O)[C@H](CO)NC(=O)[C@H](CO)NC(=O)[C@H](Cc1c[nH]cn1)NC(=O)[C@H](Cc1c[nH]cn1)NC(=O)[C@H](CC(C)C)NC(=O)[C@H](Cc1ccccc1)NC(=O)[C@H](CCC(=O)O)NC(=O)[C@H](C)NC(=O)[C@H](CC(C)C)NC(=O)[C@H](CCCNC(=N)N)NC(=O)[C@H](C)NC(=O)[C@@H](NC(=O)[C@H](CCC(N)=O)NC(=O)[C@H](C)NC(=O)[C@@H](NC(=O)[C@H](CO)NC(=O)[C@H](CC(C)C)NC(=O)[C@H](Cc1c[nH]cn1)NC(=O)[C@H](CO)NC(=O)[C@H](C)NC(=O)CC[C@H](NC(=O)CCCCCCCCCCCCCCCCC(=O)O)C(=O)O)[C@@H](C)O)[C@@H](C)O)C(=O)N1CCC[C@H]1C(=O)N[C@@H](CO)C(=O)N[C@@H](CO)C(=O)N[C@H](C(=O)N[C@@H](CC(=O)O)C(=O)N[C@H](C(=O)NCC(=O)N1CCC[C@H]1C(=O)N[C@@H](CC(=O)O)C(=O)N[C@H](C(=O)N1CCC[C@H]1C(N)=O)[C@@H](C)O)C(C)C)[C@@H](C)O
B4: N^1-[(4S)-4-carboxy-4-(17-carboxyheptadecanoylamino)butanoyl]-[Ala1,Ser2,Ala3,Leu4,Ser5,Ala7,Gln8,Ala10,Glu14, His17,Asp21, Pro25, Pro28, Pro29,Asp31, … (peptide)
peptide: {C18 diacid-γGlu}-ASALSTAQTARLAEFLHHSSDNFGPILPPTDVGSNTP-NH2
SMILES: CC[C@H](C)[C@H](NC(=O)[C@@H]1CCCN1C(=O)CNC(=O)[C@H](Cc1ccccc1)NC(=O)[C@H](CC(N)=O)NC(=O)[C@H](CC(=O)O)NC(=O)[C@H](CO)NC(=O)[C@H](CO)NC(=O)[C@H](Cc1c[nH]cn1)NC(=O)[C@H](Cc1c[nH]cn1)NC(=O)[C@H](CC(C)C)NC(=O)[C@H](Cc1ccccc1)NC(=O)[C@H](CCC(=O)O)NC(=O)[C@H](C)NC(=O)[C@H](CC(C)C)NC(=O)[C@H](CCCNC(=N)N)NC(=O)[C@H](C)NC(=O)[C@@H](NC(=O)[C@H](CCC(N)=O)NC(=O)[C@H](C)NC(=O)[C@@H](NC(=O)[C@H](CO)NC(=O)[C@H](CC(C)C)NC(=O)[C@H](C)NC(=O)[C@H](CO)NC(=O)[C@H](C)NC(=O)CC[C@H](NC(=O)CCCCCCCCCCCCCCCCC(=O)O)C(=O)O)[C@@H](C)O)[C@@H](C)O)C(=O)N[C@@H](CC(C)C)C(=O)N1CCC[C@H]1C(=O)N1CCC[C@H]1C(=O)N[C@H](C(=O)N[C@@H](CC(=O)O)C(=O)N[C@H](C(=O)NCC(=O)N[C@@H](CO)C(=O)N[C@@H](CC(N)=O)C(=O)N[C@H](C(=O)N1CCC[C@H]1C(N)=O)[C@@H](C)O)C(C)C)[C@@H](C)O
B5: N^1-[(4S)-4-carboxy-4-(17-carboxyheptadecanoylamino)butanoyl]-[Ala1,Ser2,His3,Leu4,Ser5,Ala7,Gln8,Glu14,His17,Asp21, Pro25,Pro28,Pro29,Asp31, Pro37]-human … (peptide)
peptide: {C18 diacid-γGlu}-ASHLSTAQTQRLAEFLHHSSDNFGPILPPTDVGSNTP-NH2
SMILES: CC[C@H](C)[C@H](NC(=O)[C@@H]1CCCN1C(=O)CNC(=O)[C@H](Cc1ccccc1)NC(=O)[C@H](CC(N)=O)NC(=O)[C@H](CC(=O)O)NC(=O)[C@H](CO)NC(=O)[C@H](CO)NC(=O)[C@H](Cc1c[nH]cn1)NC(=O)[C@H](Cc1c[nH]cn1)NC(=O)[C@H](CC(C)C)NC(=O)[C@H](Cc1ccccc1)NC(=O)[C@H](CCC(=O)O)NC(=O)[C@H](C)NC(=O)[C@H](CC(C)C)NC(=O)[C@H](CCCNC(=N)N)NC(=O)[C@H](CCC(N)=O)NC(=O)[C@@H](NC(=O)[C@H](CCC(N)=O)NC(=O)[C@H](C)NC(=O)[C@@H](NC(=O)[C@H](CO)NC(=O)[C@H](CC(C)C)NC(=O)[C@H](Cc1c[nH]cn1)NC(=O)[C@H](CO)NC(=O)[C@H](C)NC(=O)CC[C@H](NC(=O)CCCCCCCCCCCCCCCCC(=O)O)C(=O)O)[C@@H](C)O)[C@@H](C)O)C(=O)N[C@@H](CC(C)C)C(=O)N1CCC[C@H]1C(=O)N1CCC[C@H]1C(=O)N[C@H](C(=O)N[C@@H](CC(=O)O)C(=O)N[C@H](C(=O)NCC(=O)N[C@@H](CO)C(=O)N[C@@H](CC(N)=O)C(=O)N[C@H](C(=O)N1CCC[C@H]1C(N)=O)[C@@H](C)O)C(C)C)[C@@H](C)O
B6: N^1-[(4S)-4-carboxy-4-(17-carboxyheptadecanoylamino)butanoyl]-[Ala1,Ser2,Gln3,Leu4,Ser5,Ala7,Gln8,Ala10,Glu14,His17,Asp21,Pro25,Pro28,Pro29,Asp31,Pro37]-human … (peptide)
peptide: {C18 diacid-γGlu}-ASQLSTAQTARLAEFLHHSSDNFGPILPPTDVGSNTP-NH2
SMILES: CC[C@H](C)[C@H](NC(=O)[C@@H]1CCCN1C(=O)CNC(=O)[C@H](Cc1ccccc1)NC(=O)[C@H](CC(N)=O)NC(=O)[C@H](CC(=O)O)NC(=O)[C@H](CO)NC(=O)[C@H](CO)NC(=O)[C@H](Cc1c[nH]cn1)NC(=O)[C@H](Cc1c[nH]cn1)NC(=O)[C@H](CC(C)C)NC(=O)[C@H](Cc1ccccc1)NC(=O)[C@H](CCC(=O)O)NC(=O)[C@H](C)NC(=O)[C@H](CC(C)C)NC(=O)[C@H](CCCNC(=N)N)NC(=O)[C@H](C)NC(=O)[C@@H](NC(=O)[C@H](CCC(N)=O)NC(=O)[C@H](C)NC(=O)[C@@H](NC(=O)[C@H](CO)NC(=O)[C@H](CC(C)C)NC(=O)[C@H](CCC(N)=O)NC(=O)[C@H](CO)NC(=O)[C@H](C)NC(=O)CC[C@H](NC(=O)CCCCCCCCCCCCCCCCC(=O)O)C(=O)O)[C@@H](C)O)[C@@H](C)O)C(=O)N[C@@H](CC(C)C)C(=O)N1CCC[C@H]1C(=O)N1CCC[C@H]1C(=O)N[C@H](C(=O)N[C@@H](CC(=O)O)C(=O)N[C@H](C(=O)NCC(=O)N[C@@H](CO)C(=O)N[C@@H](CC(N)=O)C(=O)N[C@H](C(=O)N1CCC[C@H]1C(N)=O)[C@@H](C)O)C(C)C)[C@@H](C)O

The first test concerns the target T1, human amylin-3(a) receptor. Description: cell-based or functional assay.
For B1, the “hAmyR3 potency, EC50 (pM); CRE-luciferase reporter in BHK cells” value (“hAmyR3 potency, EC50 (pM)” below) stood at 1.31 pM.

As to B2, the “hAmyR3 potency, EC50 (pM)” value turned out to be 1.49 pM.

For the molecule B3, the “hAmyR3 potency, EC50 (pM)” value is 1.27 pM.

Take B4: the “hAmyR3 potency, EC50 (pM)” value is 1.62 pM.

As for B5, the “hAmyR3 potency, EC50 (pM)” value was determined as 1.64 pM.

Regarding B6, the “hAmyR3 potency, EC50 (pM)” value turned out to be 1.22 pM.

Another test deals with T2, human calcitonin receptor (a). Nature of the test: cell-based or functional assay.
Consider B1, for which the “hCalcR potency, EC50 (pM); CRE-luciferase reporter in BHK cells” value (“hCalcR potency, EC50 (pM)” below) is 2.19 pM.

Turning to B2, the “hCalcR potency, EC50 (pM)” value is 1.56 pM.

Take B3: the “hCalcR potency, EC50 (pM)” value is 1.5 pM.

On to B4, for which the “hCalcR potency, EC50 (pM)” value is 1.58 pM.

In the case of B5, the “hCalcR potency, EC50 (pM)” value is 1.89 pM.

As to B6, the “hCalcR potency, EC50 (pM)” value was 1.86 pM.
